Paper PMC11229372, “New Drosophila promoter-associated architectural protein Mzfp1 interacts with CP190 and is required for housekeeping gene expression and insulator activity”

Tests used:
MBP-Mzfp1 MADF1-MADF2 = target: T1, MBP-Mzfp1 MADF1-MADF2 (Drosophila melanogaster, UniProt Q1LZ24 100-434); assay: EMSA; no specific binding; 0.1 mM ZnSO4, poly(dI-dC); PBS pH 8.0, 5 mM MgCl2, 0.1 mM ZnSO4, 1 mM DTT, 0.1% NP-40, 10% glycerol, poly(dI-dC), room temperature, 30 min; 5% native PAGE in 0.5x TBE; conditions: protein: recombinant; tags: MBP; label: Cy5; blunt
T1 sequence: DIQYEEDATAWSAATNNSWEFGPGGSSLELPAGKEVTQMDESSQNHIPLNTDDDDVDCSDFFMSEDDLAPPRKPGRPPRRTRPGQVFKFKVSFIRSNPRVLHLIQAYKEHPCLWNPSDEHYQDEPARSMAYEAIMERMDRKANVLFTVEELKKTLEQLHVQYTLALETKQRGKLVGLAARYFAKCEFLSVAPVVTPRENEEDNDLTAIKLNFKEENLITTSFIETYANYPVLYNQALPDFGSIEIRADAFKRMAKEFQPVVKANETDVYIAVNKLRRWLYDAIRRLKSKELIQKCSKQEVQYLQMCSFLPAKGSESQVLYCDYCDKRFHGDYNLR

MBP-Mzfp1 full-length = target: T2, MBP-Mzfp1 full-length (Drosophila melanogaster, UniProt Q1LZ24 1-586); assay: EMSA; 0.1 mM ZnSO4, 5 mM MgCl2, poly(dI-dC); PBS pH 8.0, 5 mM MgCl2, 0.1 mM ZnSO4, 1 mM DTT, 0.1% NP-40, 10% glycerol, poly(dI-dC), room temperature, 30 min; 5% native PAGE in 0.5x TBE; conditions: protein: recombinant; tags: N-terminal MBP; label: Cy5; blunt
T2 sequence: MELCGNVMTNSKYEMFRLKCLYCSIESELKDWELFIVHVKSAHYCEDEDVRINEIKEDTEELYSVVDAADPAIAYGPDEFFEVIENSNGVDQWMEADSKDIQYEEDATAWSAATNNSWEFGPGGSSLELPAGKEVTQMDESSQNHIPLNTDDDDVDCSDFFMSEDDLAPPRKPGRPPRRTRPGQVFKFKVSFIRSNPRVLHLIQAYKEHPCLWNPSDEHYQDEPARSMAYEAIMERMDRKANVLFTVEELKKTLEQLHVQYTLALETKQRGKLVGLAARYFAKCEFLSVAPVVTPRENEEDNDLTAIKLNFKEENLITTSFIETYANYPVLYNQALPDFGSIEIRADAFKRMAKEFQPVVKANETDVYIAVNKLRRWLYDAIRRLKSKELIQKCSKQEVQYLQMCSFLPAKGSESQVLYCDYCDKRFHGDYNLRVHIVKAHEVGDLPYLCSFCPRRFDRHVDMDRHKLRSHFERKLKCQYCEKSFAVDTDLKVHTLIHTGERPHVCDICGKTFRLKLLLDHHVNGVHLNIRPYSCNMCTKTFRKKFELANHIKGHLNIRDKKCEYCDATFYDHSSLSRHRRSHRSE

B1: Mzfp1x4 (dsDNA)
DNA 1: GAATTCTAAGCTCTTTGTCGATATCTTGACACACCTATATGATTACTAAGCTCTTTGTCGATATCTTGACACACCTATATGAATTCTAAGCTCTTTGTCGATATCTTGACACACCTATATGATTACTAAGCTCTTTGTCGATATCTTGACACACCTATATGAATTCCTGCAG
DNA 2: CTGCAGGAATTCATATAGGTGTGTCAAGATATCGACAAAGAGCTTAGTAATCATATAGGTGTGTCAAGATATCGACAAAGAGCTTAGAATTCATATAGGTGTGTCAAGATATCGACAAAGAGCTTAGTAATCATATAGGTGTGTCAAGATATCGACAAAGAGCTTAGAATTC
MBP-Mzfp1 MADF1-MADF2
  binding result: no binding
MBP-Mzfp1 full-length
  binding result: binds
